Test: label from the status in PepcDB records

## KRPGNILIGTLPVGLDFPTRIVAEIVDAPSLTIEEIMRKAKYYLREGADIIDIGMESGKTNVEFLESVLPEIKEKINAPLSLDTLNPKEIEAGEKEVDLILSVDFGTVEEILPSKPVVLIPTNMKEGKFIEDPIGRAKALEKLKEKALNLGYKGLILDPILEHYPNFSRSLVAFYLYRMRNPQDILLAGVGNITEMMDADSVGLNALLASIAGELKISLLLTTEVSPKATGSVRELKRGIDMVLL
  protein production: failed

## MGFLDKVEKSIEGAVSGVFARAFRGEVEPVEIAGRLQRELDSEAQILSRDKSLVPNDFVVRLSSRDYERLVPYTKTLNAEIIPTLRDHASERHYVFNGPIHIRYDLDDALPVGKFTVLTGENHAKAVSDRRAPLVLEVDGVRHPLTPPGLTIGRGSDADIRINDPGISRLHARINVWPQGNDIGLSIEDLDSTNGVTVNGVKVTSTELGDGSRIEIGSTRMLVHSPTRI
  protein production: failed

## METKGEPYSEPCEFFNSILTGSVSRKMRLPRMGIRNFIGTSRLHFAKRAFHAQAAVDEDSRYGALLSIKEYPPFTGPGMLDGLLQVNHEFILTQSFTLADKPIAQERITRLQRQIRASDEAGTSVESDINFALDSMLNQEAVFGFHHFSLLCISRDLEGLSRCVSELGACLTDMNINWLREDLNLEAAFWAQLPGNHSYIARKAMLSSSNFSGLSSMHNFASGQAERTHWGLPITILETTSQTPYWFNFHRRDIGHFTVTGPTGSGKTVGLSFLLAQAMRVSPTPRAVFFDKDRGAEIFVRAIGGSYEILSPGTPTGFNPLQLENTGPNREFLQRLLKAMLGGRDRRDFTQEDEDIIERAVVRLMEEPAQQRNLTNLGNLLMGRARADANDLYSRLRPWTEGEKAWLFNAPHDVLSFSGRTVFGFDMTSILGNEELRTPALMYLYHRLDELLDGNPVMFFMDEGWQLLLDETFSAFIVDKMKTIRKLNGIVGFGTQSAADIAKSKVSHTLIEQSSTNIHFPNPRADEESYIKRFGLTVKEYNFIKNTPPEKRTFLIKHGNDSVIARLDLSSMPDLVKVLSGRKETIEECAALREQYGDEPENWLAKFCGWENAELEHHHHHH
  protein production: not failed

## RSPPSNLALASETPDSLQVSWTPPLGRVLHYWLTYAPASGLGPEKSVSVPGARSHVTLPDLQAATKYRVLVSAIYAAGRSEAVSATGQTACP
  protein production: not failed

## MPVDKNLRDLEPGIHTDLEGRLTYGGYLRLDQLLSAQQPLSEPAHHDEMLFIIQHQTSELWLKLLAHELRAAIVHLQRDEVWQCRKVLARSKQVLRQLTEQWSVLETLTPSEYMGFRDVLGPSSGFQSLQYRYIEFLLGNKNPQMLQVFAYDPAGQARLREVLEAPSLYEEFLRYLARFGHAIPQQYQARDWTAAHVADDTLRPVFERIYENTDRYWREYSLCEDLVDVETQFQLWRFRHMRTVMRVIGFKRGTGGSSGVGFLQQALALTFFPELFDVRTSVGVDNRPPQGSADAGKRLEHHHHHH
  protein production: not failed

## CSEVNVVKERPKTDEHKSYSCSFKGCTDVELVAVICPYCEKNFCLRHRHQSDHDCEKLEVAKPRMAATQKLVR
  protein production: not failed

## MSKVLQISSAIPELDYANIPKEIIPFLASYNLIPQLLSQRIIESAIAPITCTQAEISHALDQFYQHWDLTTAEKIKDWCLRYGLNAEKLKLLATRKLRVEKFKQINWRHQLESYFLKRKKYLDRVIYSLIQTENKSVVNELFFRIAEGEDSFAELARKYSQGAEADRGGIIGPVELGSITPNFAQLLYTSQVGVVQPPVAFGNTWVIVRVEKLIPAQLDDFMRQRLLQENFEDWFQQQLNQLSPEEKIWMGINPKSDQVQEMA
  protein production: failed

## MKSDYELSLRDYIAIIKDRALVLGVSAAVILAATVAVALMVPPIYQSTGTILVESQQISPELVSTNNTSFADERIEVIRQRVMTRDNLLRIIGKYDLFADKRFSESDKIDQMRNAIVVETLTTYVRGRGEATVAFNVSFEHKQPQVAKEVADELVTLFLNENLKQRTERANETTEFLTQEANKLGAELASLENQLADFKQAHANALPEHQTLRMNMLSRAELEFREVDRDYKAAQEELRYLELELSAANAGLATKVAEGTRPTRADLPEDLPSLKAEYAQLLTRYKDAHPDVVAVKRKIQALEASGGRTAAVSTVSLDAARVRAKMSAAQVRIASLAEQKRELTRKMEGYEAEILEAPQVERGLVTLMRDHDNARKKYEEIRAKEMGAKITESLEQENKAERFVLLEPPLLPEKPIKPNRKKIAALGLVLAPAGGGALVMLLEMLNQRVRGVGALESLLGKRVLVALPYIDTRADVARRKRWRNRLILAALALAAIMIGLVHVFYMPLDVLL
  protein production: failed

— a protein production outcome set (Wang et al. 2014)
